Test results reported in patent US9266964.
Numbering of substitutions follows the chain as printed. Blank lines part the entries; values can stand above or below the binder they belong to.

Target: human plasma kallikrein (human, UniProt P03952 20-390; P03952 391-638)
Assay: cell-based or functional assay

human plasma kallikrein, sequence (P03952 20-390, chain 1 of 2): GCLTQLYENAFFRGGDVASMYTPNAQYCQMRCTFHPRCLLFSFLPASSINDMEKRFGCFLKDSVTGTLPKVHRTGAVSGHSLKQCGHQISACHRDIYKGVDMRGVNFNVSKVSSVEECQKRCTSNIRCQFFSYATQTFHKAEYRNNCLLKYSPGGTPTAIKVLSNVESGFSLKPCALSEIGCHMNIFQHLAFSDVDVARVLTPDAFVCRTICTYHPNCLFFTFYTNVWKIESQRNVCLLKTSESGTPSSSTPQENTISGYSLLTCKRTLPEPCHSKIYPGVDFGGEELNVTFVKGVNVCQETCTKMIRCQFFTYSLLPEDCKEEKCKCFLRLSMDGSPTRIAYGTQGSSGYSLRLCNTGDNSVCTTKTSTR
human plasma kallikrein, sequence (P03952 391-638, chain 2 of 2): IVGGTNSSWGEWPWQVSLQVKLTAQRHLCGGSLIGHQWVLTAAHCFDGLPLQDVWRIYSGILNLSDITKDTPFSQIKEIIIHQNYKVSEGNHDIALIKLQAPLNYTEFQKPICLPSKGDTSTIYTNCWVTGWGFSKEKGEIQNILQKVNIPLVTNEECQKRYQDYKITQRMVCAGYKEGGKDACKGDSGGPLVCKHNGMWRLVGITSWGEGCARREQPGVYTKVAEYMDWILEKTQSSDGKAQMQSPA

% inhibition at 10 nM: 95.3%
B1: M197-A01 (Fab, V domains shown)
VH: EVQLLESGGGLVQPGGSLRLSCAASGFTFSIYDMIWVRQAPGKGLEWVSSIYPSGGNTSYADSVKGRFTISRDNSKNTLYLQMNSLRAEDTAVYYCAYRRTGIPRRDAFDIWGQGTMVTVSS
VL: DIQMTQSPSTLSASVGDRVTITCRASQSISSWLAWYQQKPGKAPNLLIYKASTLESGVPSRFSGSGSGTEFTLTISSLQPDDFATYYCQQYNTYWTFGQGTKVEIK

% inhibition at 10 nM: 94.9%
B2: M198-G07 (Fab, V domains shown)
VH: B1 VH with I35T, N57Q, S59I
VL: B1 VL

% inhibition at 10 nM: 90.3%
B3: M198-E02 (Fab, V domains shown)
VH: B1 VH with D33S, I35Y, S50Y, Y52R, S59K
VL: B1 VL

% inhibition at 10 nM: 86.1%
B4: M198-A07 (Fab, V domains shown)
VH: B1 VH with I31R, D33Q, I35H, S50W, Y52S, N57I, S59G
VL: B1 VL

% inhibition at 10 nM: 84.6%
B5: M201-H06 (Fab, V domains shown)
VH: B1 VH with I31H, D33I, I35M, S50G, P53S, N57I, S59V, I103V
VL: B1 VL

% inhibition at 10 nM: 93.7%
B6: M197-A08 (Fab, V domains shown)
VH: B1 VH with D33S, I35Q, Y52G, P53S, N57K, S59L
VL: B1 VL

% inhibition at 10 nM: 90.8%
B7: M195-D12 (Fab, V domains shown)
VH: B1 VH with D33G, I35F, S50G, Y52G, N57P, S59K
VL: B1 VL

% inhibition at 10 nM: 93%
B8: M197-E12 (Fab, V domains shown)
VH: B1 VH with I31T, D33T, I35R, N57K, S59Q
VL: B1 VL

% inhibition at 10 nM: 84%
B9: M202-H05 (Fab, V domains shown)
VH: B1 VH with I31H, D33I, I35M, S50G, P53S, N57I, S59V, Y98F, I103V, A108V
VL: B1 VL

% inhibition at 10 nM: 84.2%
B10: M202-F06 (Fab, V domains shown)
VH: B1 VH with I31H, D33I, I35M, S50G, P53S, N57I, S59V, I103V, R106W
VL: B1 VL

% inhibition at 10 nM: 92.9%
B11: M198-F04 (Fab, V domains shown)
VH: B1 VH with I35W, Y52R, N57I, S59K
VL: B1 VL

% inhibition at 10 nM: 91.5%
B12: M202-E06 (Fab, V domains shown)
VH: B1 VH with I31H, D33I, I35M, S50G, P53S, N57I, S59V, T101R, I103V, A108D
VL: B1 VL

% inhibition at 10 nM: 93%
B13: M198-C10 (Fab, V domains shown)
VH: EVQLLESGGGLVQPGGSLRLSCAASGFTFSHYMGMNWVRQAPGKGLEWVSSIVPSGGWTQYADSVKGRFTISRDNSKNTLYLQMNSLRAEDTAVYYCAYRRTGIPRRDAFDIWGQGTMVTVSS
VL: B1 VL

% inhibition at 10 nM: 94.1%
B14: M197-H10 (Fab, V domains shown)
VH: B1 VH with I31S, D33N, I35H, Y52V, N57K, S59N
VL: B1 VL

% inhibition at 10 nM: 93.1%
B15: M198-E09 (Fab, V domains shown)
VH: B1 VH with I35N, N57R, S59R
VL: B1 VL

% inhibition at 10 nM: 92.6%
B16: M197-F01 (Fab, V domains shown)
VH: B1 VH with D33H, I35Y, Y52G, N57P, S59G
VL: B1 VL

% inhibition at 10 nM: 93.5%
B17: M198-B09 (Fab, V domains shown)
VH: B1 VH with I31V, D33S, I35T, Y52G, P53S, N57S, S59T
VL: B1 VL

% inhibition at 10 nM: 92.5%
B18: M198-E11 (Fab, V domains shown)
VH: B1 VH with I31T, D33S, I35Y, N57L, S59W
VL: B1 VL

% inhibition at 10 nM: 90.7%
B19: M197-F03 (Fab, V domains shown)
VH: B1 VH with D33S, I35F, Y52G, N57V, S59H
VL: B1 VL

% inhibition at 10 nM: 92.3%
B20: M198-H08 (Fab, V domains shown)
VH: B1 VH with I35Y, Y52G, N57P, S59A
VL: B1 VL

% inhibition at 10 nM: 91.8%
B21: M198-F08 (Fab, V domains shown)
VH: B1 VH with I31V, D33S, I35W, Y52S, P53S, N57M, S59E
VL: B1 VL

% inhibition at 10 nM: 85.4%
B22: M200-H07 (Fab, V domains shown)
VH: B1 VH with I31H, D33I, I35M, S50G, P53S, N57I, S59V, I103V, D107N, I111N
VL: B1 VL

% inhibition at 10 nM: 92.9%
B23: M197-H11 (Fab, V domains shown)
VH: B1 VH with D33N, N57W, S59T
VL: B1 VL

% inhibition at 10 nM: 88.3%
B24: M202-G03 (Fab, V domains shown)
VH: EVQLLESGGGLVQPGGSLRLSCAASGFTFSHYIMMWVRQAPGKGLEWVSGIYSSGGITVYADSVKGRFTISRDNSKNTLYLQMNSLRAEDTAVYYCAFRRTGVPRRDSFEIWGQGTMVTVSS
VL: B1 VL

% inhibition at 10 nM: 87.7%
B25: M195-B12 (Fab, V domains shown)
VH: B1 VH with I31K, D33W, I35Y, S50Y, Y52R, N57Q, S59Y
VL: B1 VL

% inhibition at 10 nM: 84.2%
B26: M195-C12 (Fab, V domains shown)
VH: EVQLLESGGGLVQPGGSLRLSCAASGFTFSMYQMFWVRQAPGKGLEWVSSISPGGGTQYADSVKGRFTISRDNSKNTLYLQMNSLRAEDTAVYYCAYRRTGIPRRDAFDIWGQGTMVTVSS
VL: B1 VL

% inhibition at 10 nM: 89.1%
B27: M198-A02 (Fab, V domains shown)
VH: B1 VH with I31R, D33S, Y52W, P53S, N57A, S59E
VL: B1 VL

% inhibition at 10 nM: 88.9%
B28: M202-A01 (Fab, V domains shown)
VH: B24 VH with F98Y, T101I, S108A, E110D
VL: B1 VL

% inhibition at 10 nM: 85.8%
B29: M198-H02 (Fab, V domains shown)
VH: B26 VH with M31P, Q33N, F35Y, S50W, S52V, G56V, Q58K
VL: B1 VL
